Experimental data: patent US20140056903A1 (Regeneron, published 2014)

Experiments:
[1] = molecular target: T1, human GFRα3 expressed with a C-terminal hFc tag (human); test: blocking ELISA 1, hGFRα3-hFc to coated hARTEMIN-mmH
T1 construct: also called hGFRα3-hFc
Protocol: A constant amount of human GFRα3 fused with a C-terminal human Fc tag (hGFRα3-hFc; SEQ ID:371) at 120 pM was pre-mixed with varying amounts of antibodies, ranging from 0 to ˜10 nM in serial dilutions, followed by an 1 hour incubation at room temperature (RT) to allow antibody-hGFRα3-hFc binding to reach equilibrium. The equilibrated sample solutions were then transferred to the hARTEMIN-mmH-coated plate. […] Absorbance was recorded at 450 nm on a Victor X5 plate reader (Perkin Elmer) to determine the amount of free hGFRα3-hFc in the pre-equilibrated hGFRα3-hFc-antibody solutions that was able to bind to the plate coated with hARTEMIN-mmH. IC₅₀ values, defined as the concentration of antibody required to reduce the signal from a constant concentration of hGFRα3-hFc by 50%, were calculated from the data using Prism software from GraphPad. The absorbance measured at the constant amount of 120 pM hGFRα3-hFc in the absence of anti-GFRα3 antibody is defined as 0% blocking and the absorbance with no added hGFRα3-hFc is defined as 100% blocking. The observed absorbance in the wells containing the highest antibody concentration was used to calculate the maximum blocking percent shown in the table.

[2] = molecular target: T2, human GFRα1 expressed with only a C-terminal human Fc tag (human); test: BLI Octet, antigen captured on anti-hFc tips
T2 construct: also called hGFRα1-hFc
Protocol: (§1) The ability of anti-GFRα3 antibodies to bind to GDNF-family receptors was assessed using an Octet Red biosensor (Fortebio, Inc.). Antibodies were tested for binding to either human GFRα1 expressed with a C-terminal human Fc tag and a hexahistidine tag (hGFRα1-hFc-6His, R&D Systems #714-GR), human GFRα1 expressed with only a C-terminal human Fc tag (hGFRα1-hFc; SEQ ID: 376), human GFRα2 expressed with a C-terminal human Fc tag and a hexahistidine tag (hGFRα2-hFc-6His, R&D Systems #613-FR), human GFRα3 expressed with a C-terminal human Fc tag (hGFRα3-hFc, SEQ ID:371), or an irrelevant human Fc tagged protein. Antigens were captured onto anti-human Fc sensor tips from 10 ug/mL solutions for 5 minutes. The coated sensor tips were then blocked with a 100 ug/mL solution of irrelevant human Fc antibodies for 5 minutes. Blocked sensor tips were then submerged into wells containing […] of each anti-GFRα3 antibody or buffer alone for 10 minutes. The experiment was performed at 25° C. with a flow rate of 1000 rpm using HBST+BSA buffer (10 mM HEPES, 150 mM NaCl, 3 mM EDTA, 0.05% w/v Surfactant P20, 0.1 mg/mL BSA, pH 7.4). The binding response (measured in units of nm) at each step of the experiment was monitored and recorded.

[3] = molecular target: T3, human GFRα2 expressed with a C-terminal human Fc tag and a hexahistidine tag (human, UniProt O00451 22-441, limits assumed); test: BLI Octet, antigen captured on anti-hFc tips
T3 construct: bought protein; also called hGFRα2-hFc-6His; hGFRα2-hFc-6his
T3 sequence (looked up): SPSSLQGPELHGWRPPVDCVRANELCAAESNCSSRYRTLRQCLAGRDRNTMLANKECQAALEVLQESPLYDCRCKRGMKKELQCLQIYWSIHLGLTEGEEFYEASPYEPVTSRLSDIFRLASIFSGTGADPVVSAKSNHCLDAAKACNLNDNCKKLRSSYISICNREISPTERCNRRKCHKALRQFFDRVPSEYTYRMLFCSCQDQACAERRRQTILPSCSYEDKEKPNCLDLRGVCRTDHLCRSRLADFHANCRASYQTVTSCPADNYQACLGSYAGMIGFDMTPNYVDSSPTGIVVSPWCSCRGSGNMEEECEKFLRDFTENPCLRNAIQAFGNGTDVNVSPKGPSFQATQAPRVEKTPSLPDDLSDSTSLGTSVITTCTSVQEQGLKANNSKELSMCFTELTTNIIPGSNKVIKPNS
Protocol: as §1

[4] = molecular target: T4, human GFRα1 expressed with a C-terminal human Fc tag and a hexahistidine tag (human, UniProt P56159 25-429, limits assumed); test: BLI Octet, antigen on anti-hFc tips, 100 ug/mL Ab
T4 construct: bought protein; also called hGFRα1-hFc-6His; hGFRα1-hFc-6his
T4 sequence (looked up): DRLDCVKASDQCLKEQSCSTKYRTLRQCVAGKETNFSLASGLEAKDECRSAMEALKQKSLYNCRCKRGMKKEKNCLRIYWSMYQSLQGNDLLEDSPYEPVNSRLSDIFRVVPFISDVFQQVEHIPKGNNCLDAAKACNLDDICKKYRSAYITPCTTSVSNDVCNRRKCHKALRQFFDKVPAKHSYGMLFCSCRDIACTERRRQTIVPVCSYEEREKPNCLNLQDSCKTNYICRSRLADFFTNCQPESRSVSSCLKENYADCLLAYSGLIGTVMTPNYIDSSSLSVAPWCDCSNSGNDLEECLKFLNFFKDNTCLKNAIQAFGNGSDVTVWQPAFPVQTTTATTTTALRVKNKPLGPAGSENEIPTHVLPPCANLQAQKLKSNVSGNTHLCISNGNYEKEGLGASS
Protocol: as §1

[5] = molecular target: T2, human GFRα1 expressed with only a …; test: BLI Octet, antigen on anti-hFc tips, 100 ug/mL Ab
Protocol: as §1
Target sequence in this assay (chain, as listed by the source limits assumed): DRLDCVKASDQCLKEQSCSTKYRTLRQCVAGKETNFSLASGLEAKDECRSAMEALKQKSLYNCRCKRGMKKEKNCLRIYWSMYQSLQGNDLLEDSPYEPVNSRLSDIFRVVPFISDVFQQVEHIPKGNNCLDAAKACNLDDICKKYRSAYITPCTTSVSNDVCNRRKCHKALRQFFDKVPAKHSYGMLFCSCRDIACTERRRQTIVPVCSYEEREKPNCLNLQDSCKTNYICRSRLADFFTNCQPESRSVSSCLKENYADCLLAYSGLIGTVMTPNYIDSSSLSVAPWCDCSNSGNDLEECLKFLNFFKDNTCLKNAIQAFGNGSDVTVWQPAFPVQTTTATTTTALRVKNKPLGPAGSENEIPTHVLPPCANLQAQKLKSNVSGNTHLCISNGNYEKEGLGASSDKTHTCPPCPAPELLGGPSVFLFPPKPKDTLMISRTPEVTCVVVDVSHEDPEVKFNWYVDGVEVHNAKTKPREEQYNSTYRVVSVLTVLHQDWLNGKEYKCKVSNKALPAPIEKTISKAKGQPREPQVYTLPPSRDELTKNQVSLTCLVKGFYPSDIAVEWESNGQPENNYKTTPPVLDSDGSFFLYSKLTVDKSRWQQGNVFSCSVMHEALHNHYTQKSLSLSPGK

[6] = molecular target: T1, human GFRα3 expressed with a C-terminal …; test: BLI Octet, antigen on anti-hFc tips, 100 ug/mL Ab
Protocol: as §1

[7] = molecular target: T5, cynomolgus GFRα3 on HEK293/MfGFRα3/MfRet/SRE-Luc cells (cynomolgus, UniProt O60609 1-400 (human entry), limits assumed); test: cell-based or functional assay
T5 chain: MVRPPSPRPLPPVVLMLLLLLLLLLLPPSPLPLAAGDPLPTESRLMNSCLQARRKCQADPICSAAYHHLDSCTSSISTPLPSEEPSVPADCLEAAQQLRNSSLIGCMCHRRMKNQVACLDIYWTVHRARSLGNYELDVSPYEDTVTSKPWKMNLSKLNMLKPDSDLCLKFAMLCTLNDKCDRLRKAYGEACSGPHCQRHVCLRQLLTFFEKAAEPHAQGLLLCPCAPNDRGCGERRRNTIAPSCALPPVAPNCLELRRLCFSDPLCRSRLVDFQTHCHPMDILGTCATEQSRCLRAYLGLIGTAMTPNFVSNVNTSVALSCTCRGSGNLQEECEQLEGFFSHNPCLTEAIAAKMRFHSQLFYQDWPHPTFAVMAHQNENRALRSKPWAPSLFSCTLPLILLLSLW

T1 sequence (chain, as listed by the source limits assumed): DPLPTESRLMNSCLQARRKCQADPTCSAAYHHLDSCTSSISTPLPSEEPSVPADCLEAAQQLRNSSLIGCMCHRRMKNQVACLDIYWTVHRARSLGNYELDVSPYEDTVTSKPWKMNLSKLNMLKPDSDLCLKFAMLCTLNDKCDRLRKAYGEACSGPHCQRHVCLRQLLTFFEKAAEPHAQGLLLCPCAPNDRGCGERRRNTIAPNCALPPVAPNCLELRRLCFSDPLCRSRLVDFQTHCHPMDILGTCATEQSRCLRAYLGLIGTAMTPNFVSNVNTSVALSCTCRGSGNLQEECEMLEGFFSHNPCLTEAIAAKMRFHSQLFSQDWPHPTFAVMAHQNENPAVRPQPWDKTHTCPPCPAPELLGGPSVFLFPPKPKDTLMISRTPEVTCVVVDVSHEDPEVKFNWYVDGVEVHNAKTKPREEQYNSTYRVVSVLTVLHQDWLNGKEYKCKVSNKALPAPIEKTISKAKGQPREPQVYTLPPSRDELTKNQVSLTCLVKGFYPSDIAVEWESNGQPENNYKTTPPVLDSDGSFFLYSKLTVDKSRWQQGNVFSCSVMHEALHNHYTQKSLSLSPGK

% max blocking [1]: 51%
IC50 [1]: 0.0658 nM
binding result [2]: no binding (tested: 100 ug/mL)
binding result [3]: no binding (tested: 100 ug/mL)
Bound (nm) [4]: 0.03 nm
Bound (nm) [5]: 0.02 nm
Bound (nm) [6]: 1.25 nm
IC50 (SRE-luc, HEK293/MfGFRα3/MfRET cells, 500 pM human ARTEMIN-MMH) [7]: 1.3 nM
B1: H4H2352S (antibody, human IgG4, V domains shown)
VH: EVQLVQSGAEVKKPGASVKVSCKASGYTFTNYGITWVRQAPGQGLEWMGWISAYNGNTGYAQKFQGRVTMTTDTSTSTAYMELRSLRSDDTAVYYCAREDYDFWRAFDIWGQGTMVTVSS
VL: EIVLTQSPGTLSLSPGERATLSCRASQSVSSTYLAWLQQKPGQAPRLLIYGASSRATGIPDRFSGSGSGTDFTLTINRLEPEDFAVYYCQQYAYSPYTFGQGTKLEIK
notes: human IgG4 Fc (H4H); also called H4H2352S-1
